Results: the supplement of paper PMC7877785
± gives the uncertainty stated by the source.

Assay: self-splicing fitness, log relative to wild type (ln ratio); higher = more splicing; Tetrahymena group I intron in knt gene, E. coli kanamycin selection, DiMSum; sequences stand for … in CUCUCU…GGAGGGAAAAGUUAUCAGGCAUGCACCUGGUAGCUAGUCUUUAAACCAAUAGAUUGCAUCGGUUUAAAAGGCAAGACCGUCAAAUUGCGGGAAAGGGGUCAACAGCCGUUCAGUACCAAGUCUCAGGGGAAACUUUGAGAUGGCCUUGCAAAGGGUAUGGUAAUAAGCUGACGGACAUGGUCCUAACCACGCAGCCAAGUCCUAAGUCAACAGAUCUUCUGUUGAUAUGGAUGCAGUUCACAGACUAAAUGUCGGUCGGGGAAGAUGUAUUCUUCUCAUAAGAUAUAGUCGGACCUCUCCUUAAUGGGAGCUAGCGGAUGAAGUGAUGCAACACUGGAGCCGCUGGGAACUAAUUUGUAUGCGAAAGUAUAUUGAUUAGUUUUGGAGUACUCGUGGUCG
Procedure, shortened: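 Colonies from six replicate transformations of E. coli BL21(DE3) were pooled and amplicon-sequenced on an Illumina HiSeq 2500. The library placed an intron with all eight P1ex-region nucleotides randomised inside the knt kanamycin-resistance gene on pET-22b(+), and cells grew overnight at 37°C or 30°C on LB agar with or without 25 μg/mL kanamycin (plus 100 μg/mL carbenicillin, 50 μM IPTG, 0.2% rhamnose). Fitness is the DiMSum error-weighted combination of wild-type-normalised replicate fold changes, kanamycin versus none.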

Sequence	self-splicing fitness (ln) (30 °C)	self-splicing fitness (ln) (37 °C)
UGUAAGCAAUAUUACGGAUG	-0.704 ± 0.07	-0.103 ± 0.095
AUGCAGCAAUAUUACGGACA	-1.13 ± 0.15	-0.421 ± 0.13
CAAUAGCAAUAUUACGUUCC	-2.6 ± 0.26	-2.13 ± 0.35
GUUCAGCAAUAUUACGAGAU	-2.51 ± 0.16	-0.359 ± 0.12
UCAUAGCAAUAUUACGCGUA	-1.44 ± 0.09	-0.884 ± 0.08
GCCAAGCAAUAUUACGGAAG	-3.55 ± 0.34	-2.57 ± 0.33
CACUAGCAAUAUUACGCUCU	-2.46 ± 0.18	-0.207 ± 0.13
GGCAAGCAAUAUUACGCUUA	-0.449 ± 0.076	0.129 ± 0.1
UUCUAGCAAUAUUACGCUUG	-4.24 ± 0.33	-2.67 ± 0.22
AGCCAGCAAUAUUACGUUGG	-3.52 ± 0.4	-2.56 ± 0.23
UUCUAGCAAUAUUACGAGCA	-0.992 ± 0.089	-0.124 ± 0.085
GUGCAGCAAUAUUACGGAAG	-3.19 ± 0.24	-1.77 ± 0.25
GCGAAGCAAUAUUACGCCGA	–	-1.78 ± 0.35
CGUUAGCAAUAUUACGAAAA	-2.76 ± 0.49	-1.83 ± 0.3
AGUAAGCAAUAUUACGCGCU	-2.64 ± 0.28	-2.1 ± 0.4
CUUGAGCAAUAUUACGGUGA	-3.34 ± 0.27	-2 ± 0.25
UUAUAGCAAUAUUACGGGGC	-2.88 ± 0.34	–
CAUGAGCAAUAUUACGCUUC	–	-2.38 ± 0.32
GAACAGCAAUAUUACGACCC	-0.0445 ± 0.095	0.121 ± 0.11
CUCAAGCAAUAUUACGAAAC	-3.86 ± 0.32	-1.55 ± 0.17
AGAAAGCAAUAUUACGACCU	0.52 ± 0.099	0.265 ± 0.11
AUGUAGCAAUAUUACGUGGG	–	-3.13 ± 0.21
GAGAAGCAAUAUUACGGAGC	-3.83 ± 0.4	-1.84 ± 0.23
AGACAGCAAUAUUACGGACA	-1.09 ± 0.1	-0.425 ± 0.12
UAUAAGCAAUAUUACGAAUC	–	-1.77 ± 0.36

Sequence	self-splicing fitness (ln) (30 °C)	self-splicing fitness (ln) (37 °C)
CCGAAGCAAUAUUACGAACA	–	-2.58 ± 0.41
CUAUAGCAAUAUUACGAGCU	-1.79 ± 0.48	–
AGGAAGCAAUAUUACGUGAG	-0.821 ± 0.1	-1.57 ± 0.14
UAUCAGCAAUAUUACGGUGC	-3.27 ± 0.19	-1.14 ± 0.14
GGGCAGCAAUAUUACGUGCC	–	-0.519 ± 0.48
AGUGAGCAAUAUUACGGGGA	-3.7 ± 0.25	-2 ± 0.21
CAUCAGCAAUAUUACGCGCC	-2.74 ± 0.27	-1.05 ± 0.27
CAGUAGCAAUAUUACGGAAA	-3.56 ± 0.47	-3.19 ± 0.4
UGUUAGCAAUAUUACGUCUG	-0.698 ± 0.12	0.393 ± 0.15
AGCCAGCAAUAUUACGAGCU	-3.38 ± 0.21	-3 ± 0.35
CGCAAGCAAUAUUACGUUAA	-2.49 ± 0.18	-2.62 ± 0.21
AGGUAGCAAUAUUACGGGCC	-1.74 ± 0.024	-1.5 ± 0.041
CCAGAGCAAUAUUACGUAAA	-2.75 ± 0.2	-1.29 ± 0.3
AUUUAGCAAUAUUACGUGGC	-3.57 ± 0.43	-1.69 ± 0.32
UUACAGCAAUAUUACGGGAC	-4.47 ± 0.33	-2.07 ± 0.25
AAUCAGCAAUAUUACGCAAC	-1.32 ± 0.11	-0.666 ± 0.13
ACAAAGCAAUAUUACGUUUC	-4.84 ± 0.24	-2.49 ± 0.16
UGGCAGCAAUAUUACGUUAC	-4.11 ± 0.46	-2.46 ± 0.25
GUAAAGCAAUAUUACGAGCA	0.322 ± 0.08	0.673 ± 0.11
UACUAGCAAUAUUACGCCCA	-0.901 ± 0.21	0.802 ± 0.33
AUGAAGCAAUAUUACGGCGC	-0.339 ± 0.074	0.665 ± 0.11
UGUUAGCAAUAUUACGAAAA	-2.39 ± 0.46	-1.28 ± 0.22
CCCCAGCAAUAUUACGAAGA	-2.91 ± 0.24	-2.52 ± 0.26
ACACAGCAAUAUUACGGAUU	-2.18 ± 0.096	-1.45 ± 0.12
UACCAGCAAUAUUACGGCCC	-1.19 ± 0.14	-0.219 ± 0.26
